{
  "source": "patent EP1959993B1",
  "key": {"CEA": {"target": "CEA (UniProt P06731)", "assay": "SE-HPLC of 125I-TF2 mixed with a 20-fold molar excess of CEA"}, "[1]": {"target": "fusion protein containing the A3B3 domain of CEA (UniProt P06731)", "assay": "competitive ELISA against HRP-conjugated hMN-14 IgG on the A3B3 fusion protein"}, "[2]": {"target": "C-DDD1-Fab-hMN-14 (human)", "assay": "equilibrium SE-HPLC"}, "[3]": {"target": "N-DDD1-Fab-hMN-14 (human)", "assay": "equilibrium SE-HPLC"}, "[4]": {"target": "recombinant human RIIα (human) (UniProt P13861)", "sequence (P13861 whole entry)": "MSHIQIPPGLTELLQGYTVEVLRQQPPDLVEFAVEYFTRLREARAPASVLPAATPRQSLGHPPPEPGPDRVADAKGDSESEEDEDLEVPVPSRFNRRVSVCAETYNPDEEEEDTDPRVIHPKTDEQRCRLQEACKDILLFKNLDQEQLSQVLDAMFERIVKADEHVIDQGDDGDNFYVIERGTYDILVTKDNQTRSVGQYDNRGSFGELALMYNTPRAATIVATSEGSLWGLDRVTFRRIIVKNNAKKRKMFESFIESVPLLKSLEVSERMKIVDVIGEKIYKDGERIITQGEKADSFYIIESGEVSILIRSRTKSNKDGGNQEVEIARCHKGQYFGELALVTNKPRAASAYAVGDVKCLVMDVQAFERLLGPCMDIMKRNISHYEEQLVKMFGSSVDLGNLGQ", "assay": "equilibrium SE-HPLC"}, "[5]": {"target": "C-DDD1-Fab-hMN-14 (human)", "assay": "SE-HPLC of the mixture with hMN14-Fab-DDD1; h679-Fab-AD2 reduced with TCEP"}, "[6]": {"target": "C-DDD1-Fab-hMN-14 (human)", "assay": "SE-HPLC of the mixture with hMN14-Fab-DDD1; h679-Fab-AD2 not reduced"}},
  "note": "pKd: −log10 of the molar value.",
  "data": [
    {"substance": "TF2 (bispecific antibody)", "values": [
      {"measurement": "percent shifted to a high molecular weight species", "setting": "CEA", "value": 95, "unit": "%"},
      {"measurement": "avidity, fold against TF1", "setting": "[1]", "value": 2, "unit": "fold"}
    ]},
    {"substance": "h679-Fab-AD1", "values": [
      {"measurement": "pKd", "setting": "[2]", "value": 7.82},
      {"measurement": "pKd", "setting": "[3]", "value": 8.10},
      {"measurement": "pKd", "setting": "[4]", "value": 7.52}
    ]},
    {"substance": "h679-Fab-AD2", "values": [
      {"measurement": "percent activity", "setting": "[5]", "value": 100, "unit": "%"},
      {"measurement": "fraction reactive", "setting": "[6]", "value": 0.33}
    ]}
  ]
}
